For assay [1], the target named is T1, recombinant biotinylated monomeric Fc fusion of human Folate Receptor 1 (huFolR1 ECD-AcTev-Fcknob-Avi tag … (human, UniProt P0DOX5 223-449 = IgG part, biotin on the C-terminal Avi tag)).
T1 construct: also called huFolR1-Fc; human FolR1-Fc
The experiment in a line: SPR Biacore, avidity (bivalent, apparent KD), antigen-Fc on SA chip. As to the method:
(§1) The avidity of the interaction between the anti-FolR1 IgG or T cell bispecifics and the recombinant folate receptors was determined as described below (Table 25).
(§2) Recombinant biotinylated monomeric Fc fusions of human, cynomolgus and murine Folate Receptor 1 (FolR1-Fc) were directly coupled on a SA chip using the standard coupling instruction (Biacore, GE Healthcare). The immobilization level was about 300-400 RU. The anti-FolR1 IgGs or T cell bispecifics were passed at a concentration range from 3.7 to 900 nM with a flow of 30 μL/minutes through the flow cells over 180 seconds. The dissociation was monitored for 240 or 600 seconds. The chip surface was regenerated after every cycle using a double injection of 30 sec 10 mM Glycine-HCl pH 2. Bulk refractive index differences were corrected for by subtracting the response obtained on reference flow cell immobilized with recombinant biotinylated murine CD134 Fc fusion. The binding curves resulting from the bivalent binding of the IgG or T cell bispecifics were approximated to a 1:1 Langmuir binding (even though it is a 1:2 binding) and fitted with that model to get an apparent KD representing the avidity of the bivalent binding. The apparent avidity constants for the interactions were derived from the rate constants of the fitting using the Bia Evaluation software (GE Healthcare). For the 1+1 T cell bispecifics format the interaction is a real 1:1 and the KD represents affinity since there is only one FolR1 binder in this construct.
For orientation: In SPR one partner is held on a chip, and binding of the other changes the refractive index at the surface.

In assay [2] the target is T2, recombinant biotinylated monomeric Fc fusion of murine Folate Receptor 1 (mu FolR1 ECD-AcTev-Fcknob-Avitag … (murine, UniProt P0DOX5 223-449 = IgG part, biotin on the C-terminal Avi tag)).
T2 construct: also called muFolR1-Fc; murine FolR1
Described as above. As to the method: as §1, §2

In assay [3] the target is T3, recombinant biotinylated monomeric Fc fusion of cynomolgus Folate Receptor 1 (cy FolR1 ECD-AcTev-Fcknob-Avi … (cynomolgus, UniProt P0DOX5 223-449 = IgG part, biotin on the C-terminal Avi tag)).
T3 construct: also called cyFolR1-Fc; cyno FolR1
The assay is described as above. As to the method:
as §1, §2

The target in assay [4] is T4, human FolR2 on transfected HEK cells (human, UniProt P14207 17-230).
T4 construct: whole, on cells
The experiment in a line: flow cytometry on transfected HEK cells.

The target of assay [5] is T5, human FolR1 expressed on cells (HeLa, SKOV3, HT-29, transfected HEK cells) (human, UniProt P15328 25-234).
T5 construct: whole, on cells; also called FolR1 on HeLa cells; human FolR1 on cells
Description: flow cytometry on transfected HEK cells.

The target in assay [6] is T1, recombinant biotinylated monomeric Fc …. The experiment in a line: SPR Biacore, avidity (bivalent, apparent KD), antigen-Fc on SA chip. As to the method:
(§3) Binding of FolR1 binders as IgG or in the T-cell bispecific format to different recombinant folate receptors (human FolR1, 2 and 3, murine FolR1 and cynomolgus FolR1; all as Fc fusions) was assessed by surface plasmon resonance (SPR). All SPR experiments were performed on a Biacore T200 at 25° C. with HBS-EP as running buffer (0.01 M HEPES pH 7.4, 0.15 M NaCl, 3 mM EDTA, 0.005% Surfactant P20, Biacore, Freiburg/Germany).
(§4) Recombinant biotinylated monomeric Fc fusions of human, cynomolgus and murine Folate Receptor 1 (FolR1-Fc) were directly coupled on a SA chip using the standard coupling instruction (Biacore, Freiburg/Germany). The immobilization level was about 300-400 RU. The anti-FolR1 IgGs or T cell bispecifics were passed at a concentration range from 2.1 to 500 nM with a flow of 30 μL/minutes through the flow cells over 180 seconds. The dissociation was monitored for 600 seconds. Bulk refractive index differences were corrected for by subtracting the response obtained on reference flow cell immobilized with recombinant biotinylated IL2 receptor Fc fusion. […] The binding curves resulting from the bivalent binding of the IgGs or T cell bispecifics were approximated to a 1:1 Langmuir binding and fitted with that model (which is not correct, but gives an idea of the avidity). The apparent avidity constants for the interactions were derived from the rate constants of the fitting using the Bia Evaluation software (GE Healthcare).
This is another data set of the same source.

The target of assay [7] is T2, recombinant biotinylated monomeric Fc …. Described as above. On the procedure: as §3, §4
The source holds these as a separate data set.

Assay [8] addresses T3, recombinant biotinylated monomeric Fc …. Described as above. On the procedure: as §3, §4
This is another data set of the same source.

Like-named read-outs stand apart in the source and are kept apart here.

T5 sequence (P15328 25-234): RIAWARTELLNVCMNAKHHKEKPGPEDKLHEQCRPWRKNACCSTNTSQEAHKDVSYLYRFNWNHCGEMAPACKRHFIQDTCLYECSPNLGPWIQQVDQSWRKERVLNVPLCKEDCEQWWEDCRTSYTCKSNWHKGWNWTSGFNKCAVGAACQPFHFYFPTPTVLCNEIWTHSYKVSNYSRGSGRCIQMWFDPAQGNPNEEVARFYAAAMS
T4 sequence (P14207 17-230): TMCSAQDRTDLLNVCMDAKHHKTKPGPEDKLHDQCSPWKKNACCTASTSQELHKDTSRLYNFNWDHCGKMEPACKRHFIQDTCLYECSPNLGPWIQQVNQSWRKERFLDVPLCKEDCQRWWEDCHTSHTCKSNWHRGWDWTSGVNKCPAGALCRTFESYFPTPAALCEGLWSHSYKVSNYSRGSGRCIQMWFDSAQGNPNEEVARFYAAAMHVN

B1: 36F2 IgG (antibody, V domains shown)
VH: QVQLVQSGAEVKKPGASVKVSCKASGYTFTSYYMHWVRQAPGQGLEWMGIINPSGGSTSYAQKFQGRVTMTHDTSTSTVYMELSSLRSEDTAVYYCARSFFTGFHLDYWGQGTLVTVSS
VL: EIVLTQSPGTLSLSPGERATLSCRASQSVSSSYLAWYQQKPGQAPRLLIYGASSRATGIPDRFSGSGSGTDFTLTISRLEPEDFAVYYCQQYTNEHYYTFGQGTKVEIK
Regarding B1, the Kd amounted to 6 nM in assay [1]; 2 nM in assay [2]; 6 nM in assay [3]; 5.74 nM in assay [6]; 1.63 nM in assay [7]; 5.31 nM in assay [8]. The koff – broadly, the rate constant with which the complex falls apart – turned out to be 0.013 s⁻¹ in assay [1]; 0.000823 s⁻¹ in assay [2]; 0.0175 s⁻¹ in assay [3]; 0.0151 s⁻¹ in assay [6]; 0.000603 s⁻¹ in assay [7]; 0.016 s⁻¹ in assay [8]. For the same molecule, the kon – broadly, the rate constant with which the complex forms – was determined as 2.07e+06 M⁻¹ s⁻¹ in assay [1]; 428000 M⁻¹ s⁻¹ in assay [2]; 2.78e+06 M⁻¹ s⁻¹ in assay [3]; 2.62e+06 M⁻¹ s⁻¹ in assay [6]; 370000 M⁻¹ s⁻¹ in assay [7]; 3.02e+06 M⁻¹ s⁻¹ in assay [8]. Further, the figures for the binding result in assay [4] and in assay [5] were “no binding” and “binds”, respectively.

(Values after patent publication US20220220224A1 (Hoffmann-La Roche, published 2022).)
